Measured values from patent publication US20110136676, “GEOMETRIC PATTERNS AND LIPID BILAYERS FOR DNA MOLECULE ORGANIZATION AND USES THEREOF” (published 2011).

Experiments:
LacI = LacI (UniProt P03023); settings: CITED F24; cited from earlier work
EcoRI E111Q E111Q = settings: CITED F17; cited from earlier work
EcoRI = settings: CITED F17; cited from earlier work
[1] = system: RNA polymerase holoenzyme (Escherichia coli); settings: CITED; cited from earlier work
Mlh1-Pms1 = Mlh1-Pms1 (Saccharomyces cerevisiae, UniProt P38920;P14242 P38920:1-769,P14242:1-873); assay: EMSA; 25 mM Hepes pH 7.6, 50 mM NaCl, RT; QD/antibody labelling did not disrupt binding; settings: tags: FLAG inserted after T448 or Y499 of Mlh1 and/or HA after D565 of Pms1, anti-tag quantum dots; chain copies: heterodimer (stated); label: 5'-32P
Sequence of Mlh1-Pms1 (P38920 whole entry, chain 1 of 2): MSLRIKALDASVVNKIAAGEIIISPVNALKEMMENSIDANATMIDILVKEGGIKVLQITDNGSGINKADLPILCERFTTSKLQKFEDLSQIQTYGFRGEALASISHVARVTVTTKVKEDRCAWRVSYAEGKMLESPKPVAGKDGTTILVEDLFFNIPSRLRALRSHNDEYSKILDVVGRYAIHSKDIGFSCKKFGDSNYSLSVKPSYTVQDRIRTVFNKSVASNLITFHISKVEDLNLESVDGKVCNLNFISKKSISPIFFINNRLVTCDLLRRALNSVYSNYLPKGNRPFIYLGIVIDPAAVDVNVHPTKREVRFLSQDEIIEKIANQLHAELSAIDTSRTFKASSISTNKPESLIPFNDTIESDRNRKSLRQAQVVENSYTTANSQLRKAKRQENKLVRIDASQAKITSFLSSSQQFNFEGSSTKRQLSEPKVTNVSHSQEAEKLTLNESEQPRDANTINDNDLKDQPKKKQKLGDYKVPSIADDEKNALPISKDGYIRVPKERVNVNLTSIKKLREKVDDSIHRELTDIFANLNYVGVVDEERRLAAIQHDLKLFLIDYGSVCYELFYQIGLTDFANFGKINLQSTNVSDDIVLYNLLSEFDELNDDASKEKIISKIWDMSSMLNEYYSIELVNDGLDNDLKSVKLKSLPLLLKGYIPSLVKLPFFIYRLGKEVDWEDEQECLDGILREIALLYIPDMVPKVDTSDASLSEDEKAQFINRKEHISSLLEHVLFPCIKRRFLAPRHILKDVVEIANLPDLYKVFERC
Sequence of Mlh1-Pms1 (P14242 whole entry, chain 2 of 2): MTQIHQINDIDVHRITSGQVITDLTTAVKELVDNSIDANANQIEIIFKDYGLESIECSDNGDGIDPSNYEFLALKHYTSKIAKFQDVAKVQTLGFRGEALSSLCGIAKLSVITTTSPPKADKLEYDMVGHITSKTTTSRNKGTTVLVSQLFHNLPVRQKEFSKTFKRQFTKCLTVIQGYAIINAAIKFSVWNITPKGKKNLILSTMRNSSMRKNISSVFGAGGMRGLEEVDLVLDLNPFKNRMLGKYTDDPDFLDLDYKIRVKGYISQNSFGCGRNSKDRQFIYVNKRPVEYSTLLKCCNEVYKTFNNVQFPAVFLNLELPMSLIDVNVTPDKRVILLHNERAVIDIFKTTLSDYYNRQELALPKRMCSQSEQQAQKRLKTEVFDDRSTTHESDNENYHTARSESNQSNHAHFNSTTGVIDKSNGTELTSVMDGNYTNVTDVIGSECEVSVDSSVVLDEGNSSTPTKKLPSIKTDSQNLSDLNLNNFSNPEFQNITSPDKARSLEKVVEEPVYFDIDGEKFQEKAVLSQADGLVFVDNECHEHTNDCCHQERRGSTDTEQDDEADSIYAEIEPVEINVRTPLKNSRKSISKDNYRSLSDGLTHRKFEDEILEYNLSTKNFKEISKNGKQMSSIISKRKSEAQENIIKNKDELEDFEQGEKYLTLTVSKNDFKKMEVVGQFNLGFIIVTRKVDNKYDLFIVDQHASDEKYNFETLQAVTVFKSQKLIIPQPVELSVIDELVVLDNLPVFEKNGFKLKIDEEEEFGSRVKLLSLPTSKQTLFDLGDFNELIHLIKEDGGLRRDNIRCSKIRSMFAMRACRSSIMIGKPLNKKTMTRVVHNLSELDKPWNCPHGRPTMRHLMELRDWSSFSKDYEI
Description: Ensemble characterization of Mlh-Pms1 DNA-binding activity. […] Samples were loaded on 4% (w/v) non-denaturing polyacrylamide gels containing 0.5×TBE and electrophoresed at 130 V for 1 hour at RT. Gels were dried on 3mM Whatman paper and visualized by Phosphorlmaging. Analysis was done using ImageJ.

Sequence of LacI (P03023 whole entry): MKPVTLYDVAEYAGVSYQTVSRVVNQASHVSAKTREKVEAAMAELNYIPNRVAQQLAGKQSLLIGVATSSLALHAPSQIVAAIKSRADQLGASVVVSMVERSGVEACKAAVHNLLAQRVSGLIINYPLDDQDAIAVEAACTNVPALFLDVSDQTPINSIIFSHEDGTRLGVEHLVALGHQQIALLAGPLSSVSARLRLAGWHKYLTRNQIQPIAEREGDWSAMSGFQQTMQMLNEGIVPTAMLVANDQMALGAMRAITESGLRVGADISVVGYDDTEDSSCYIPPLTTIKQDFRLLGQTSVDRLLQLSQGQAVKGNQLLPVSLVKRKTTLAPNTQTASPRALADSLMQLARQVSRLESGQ

nonspecific DNA
Kd (LacI): > 1000 pM
Kd (EcoRI E111Q E111Q): 4.8 pM

EcoRI cognate site DNA
Kd (EcoRI): 6.7 pM
Kd (EcoRI E111Q E111Q): 0.0025 pM

lambda PL promoter
Kd [1]: 100 pM

lambda PR promoter
Kd [1]: 10 pM

B1: 40 bp S1/S2 duplex (dsDNA)
DNA 1: ACCGAATTCTGACTTGCTAGGACATCTTTGCCCACGTTGA
DNA 2: TCAACGTGGGCAAAGATGTCCTAGCAAGTCAGAATTCGGT
binding result (Mlh1-Pms1): binds
